Measurements taken from patent US20220213176A1 (SHANGHAITECH UNIVERSITY, published 2022).

T1: HCoV-229E spike (HCoV-229E, UniProt P15423 16-1173)
T1 construct: whole, on cells
T1 sequence: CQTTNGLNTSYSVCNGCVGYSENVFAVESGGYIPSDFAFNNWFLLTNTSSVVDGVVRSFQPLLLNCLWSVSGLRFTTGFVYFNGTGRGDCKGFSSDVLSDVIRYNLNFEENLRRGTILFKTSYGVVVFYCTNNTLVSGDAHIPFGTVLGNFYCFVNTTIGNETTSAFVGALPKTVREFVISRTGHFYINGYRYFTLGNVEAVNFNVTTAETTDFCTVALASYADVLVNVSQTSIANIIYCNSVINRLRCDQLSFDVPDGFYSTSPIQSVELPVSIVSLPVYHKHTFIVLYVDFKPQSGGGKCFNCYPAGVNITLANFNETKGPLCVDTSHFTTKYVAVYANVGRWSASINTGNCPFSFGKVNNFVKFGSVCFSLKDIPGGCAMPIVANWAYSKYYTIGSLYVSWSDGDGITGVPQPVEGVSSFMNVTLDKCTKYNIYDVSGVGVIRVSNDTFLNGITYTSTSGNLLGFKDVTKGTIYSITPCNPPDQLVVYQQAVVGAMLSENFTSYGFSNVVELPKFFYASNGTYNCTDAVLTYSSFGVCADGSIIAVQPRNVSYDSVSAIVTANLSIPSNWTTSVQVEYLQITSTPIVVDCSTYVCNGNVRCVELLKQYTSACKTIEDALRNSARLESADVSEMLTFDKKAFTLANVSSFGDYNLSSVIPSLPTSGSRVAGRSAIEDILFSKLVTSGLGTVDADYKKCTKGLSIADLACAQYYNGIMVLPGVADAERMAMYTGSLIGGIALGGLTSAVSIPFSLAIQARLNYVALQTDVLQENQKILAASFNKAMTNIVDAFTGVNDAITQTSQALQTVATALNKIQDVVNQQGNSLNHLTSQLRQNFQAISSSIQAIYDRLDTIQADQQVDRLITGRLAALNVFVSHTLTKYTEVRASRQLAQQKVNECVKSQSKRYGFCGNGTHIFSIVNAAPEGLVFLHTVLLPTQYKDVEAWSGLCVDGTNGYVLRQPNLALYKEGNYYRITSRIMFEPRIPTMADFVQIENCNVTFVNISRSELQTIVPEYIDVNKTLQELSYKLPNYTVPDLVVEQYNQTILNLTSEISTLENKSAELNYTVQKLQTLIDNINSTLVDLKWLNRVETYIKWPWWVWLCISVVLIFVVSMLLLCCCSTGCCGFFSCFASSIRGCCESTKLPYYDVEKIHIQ

T2: HCoV-OC43 spike (HCoV-OC43, UniProt P36334 14-1353)
T2 construct: whole, on cells; also called HCoV-0C43 spike
T2 sequence: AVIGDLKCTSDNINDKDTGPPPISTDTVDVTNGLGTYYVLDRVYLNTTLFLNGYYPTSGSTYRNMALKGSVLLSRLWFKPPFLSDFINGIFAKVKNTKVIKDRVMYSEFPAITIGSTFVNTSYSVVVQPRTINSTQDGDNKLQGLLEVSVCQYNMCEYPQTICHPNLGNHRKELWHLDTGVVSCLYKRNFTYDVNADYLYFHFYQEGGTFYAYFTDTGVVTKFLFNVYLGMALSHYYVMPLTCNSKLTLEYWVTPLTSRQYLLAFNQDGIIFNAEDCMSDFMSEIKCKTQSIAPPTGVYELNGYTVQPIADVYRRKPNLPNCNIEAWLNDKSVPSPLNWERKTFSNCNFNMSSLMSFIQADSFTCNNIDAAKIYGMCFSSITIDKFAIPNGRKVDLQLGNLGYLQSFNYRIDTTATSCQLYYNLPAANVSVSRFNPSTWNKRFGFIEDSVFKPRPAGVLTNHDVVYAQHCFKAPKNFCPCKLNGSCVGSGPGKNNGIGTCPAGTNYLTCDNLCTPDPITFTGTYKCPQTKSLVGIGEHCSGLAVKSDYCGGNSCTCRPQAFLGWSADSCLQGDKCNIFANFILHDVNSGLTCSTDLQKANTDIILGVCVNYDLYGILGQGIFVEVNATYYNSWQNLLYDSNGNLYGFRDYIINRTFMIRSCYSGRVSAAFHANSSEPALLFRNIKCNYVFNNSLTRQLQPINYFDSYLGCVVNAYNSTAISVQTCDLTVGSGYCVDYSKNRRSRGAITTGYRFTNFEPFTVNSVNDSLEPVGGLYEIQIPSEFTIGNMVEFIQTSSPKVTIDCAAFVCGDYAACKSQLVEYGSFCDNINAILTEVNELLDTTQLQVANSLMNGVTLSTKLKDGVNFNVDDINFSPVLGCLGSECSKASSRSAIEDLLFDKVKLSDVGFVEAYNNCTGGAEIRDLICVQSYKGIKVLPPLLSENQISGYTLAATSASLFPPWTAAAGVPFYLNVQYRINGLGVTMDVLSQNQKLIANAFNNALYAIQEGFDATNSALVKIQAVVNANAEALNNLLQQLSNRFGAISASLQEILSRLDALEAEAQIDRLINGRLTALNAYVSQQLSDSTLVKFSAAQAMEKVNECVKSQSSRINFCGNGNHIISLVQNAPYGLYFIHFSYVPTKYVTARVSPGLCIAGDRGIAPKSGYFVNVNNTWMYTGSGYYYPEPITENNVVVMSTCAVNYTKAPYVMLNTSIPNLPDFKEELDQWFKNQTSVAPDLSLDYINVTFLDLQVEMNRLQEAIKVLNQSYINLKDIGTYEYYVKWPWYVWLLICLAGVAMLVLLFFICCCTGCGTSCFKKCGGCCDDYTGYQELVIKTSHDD

B1: S-B8 (antibody, V domains shown)
VH: QVQLVQSGGGLIQPGGSLRLSCAASGFTVSLSHMNWVRQAPGKGLEWVSITYGDGNSDYADSVKGRFTISRDNSKNTLYLQMNSLRAEDTAVYYCAREYYYGMDVWGQGTTVTVSS
VL: not shown
notes: also called S-B8 dimer
B2: S-E6 (antibody, V domains shown)
VH: QVTLRESGPGLVKPSETLSLTCAVSGGSLSSVNYYWSWIRQHPGKGLEWIGYIYYSGSTNYNPSLKSRVTMSLDTSKNQFSLKLSSVTAADTAVYYCATPGAIMGALHIWGQGTLVTVSS
VL: QAVLTQPSSASSTPGQRVIISCSGSSSNIGSNTVSWYQQVPGAAPKLLIYFDYRRPSGVPDRFSGTRSGTSASLGISGLQSEDEADYYCAAWDDSLSAWVFGRGTKLTVLG
notes: also called S-E6 dimer; dimer S-E6
B3: S-D4 (antibody, V domains shown)
VH: QVQLQESGGGVVQPGRSLRLSCEVSGFTFSDYGMHWVRQAPGKGLEWVAVIWSEGSTEYYADSVKGRFTISRDNSKDTLYLQMNSLRAEDTAVYYCARPGYPTSTDRSPAAAGARQYYYYGMDVWGQGTTVTVSS
VL: NFMLTQPHSVSESPGKTVTISCTRSGGSGAANYVQWYQQRPGSSPTTLIYEDSRRPPGVPDRFSGSVDTSSNSASLTISGLQTEDEADYYCQSYDSSNHVVFGGGTKLTVLG
notes: also called S-D4 dimer; S-D4 IgG4

molecular target: spike of authentic SARS-CoV-2 virus BetaCoV/Australia/VIC01/2020 (SARS-CoV-2); assay: cell-based or functional assay

| Binder | NT50, authentic virus B VIC01 neutralization [nM] |
| --- | --- |
| B1 | 0.88 |
| B2 | 0.15 |
| B3 | 2.04 |

molecular target: T1, HCoV-229E spike; assay: FACS, transfected HEK293T cells, IgG4 antibody

| Binder | binding result |
| --- | --- |
| B1 | no binding |
| B2 | no binding |
| B3 | no binding |

molecular target: T2, HCoV-OC43 spike; assay: FACS, transfected HEK293T cells, IgG4 antibody

| Binder | binding result |
| --- | --- |
| B1 | no binding |
| B2 | no binding |
| B3 | no binding |
